In test [1] the target is GFP-tagged Plasmepsin V (PmV-GFP), P. falciparum clone DC6 (Plasmodium falciparum).
The target is the same in test [2]. The experiment in a line: enzyme inhibition (fluorogenic substrate cleavage), Ki calculated from IC50; bead-bound PmV-GFP at <=10 pM, 3 uM DABCYL-[…]-EDANS substrate, serial dilution of inhibitor 10 uM to 0.1 pM, 37 C, 50 mM Tris-Maleate pH 6.5, 50 mM NaCl, 0.05% TX-100, 2 mM DTT; Ki from IC50 = Ki (1 + [S]/KM).

Chain of GFP-tagged Plasmepsin V (PmV-GFP), P. falciparum clone DC6 (Plasmodium falciparum) (Q8I6Z5 whole entry): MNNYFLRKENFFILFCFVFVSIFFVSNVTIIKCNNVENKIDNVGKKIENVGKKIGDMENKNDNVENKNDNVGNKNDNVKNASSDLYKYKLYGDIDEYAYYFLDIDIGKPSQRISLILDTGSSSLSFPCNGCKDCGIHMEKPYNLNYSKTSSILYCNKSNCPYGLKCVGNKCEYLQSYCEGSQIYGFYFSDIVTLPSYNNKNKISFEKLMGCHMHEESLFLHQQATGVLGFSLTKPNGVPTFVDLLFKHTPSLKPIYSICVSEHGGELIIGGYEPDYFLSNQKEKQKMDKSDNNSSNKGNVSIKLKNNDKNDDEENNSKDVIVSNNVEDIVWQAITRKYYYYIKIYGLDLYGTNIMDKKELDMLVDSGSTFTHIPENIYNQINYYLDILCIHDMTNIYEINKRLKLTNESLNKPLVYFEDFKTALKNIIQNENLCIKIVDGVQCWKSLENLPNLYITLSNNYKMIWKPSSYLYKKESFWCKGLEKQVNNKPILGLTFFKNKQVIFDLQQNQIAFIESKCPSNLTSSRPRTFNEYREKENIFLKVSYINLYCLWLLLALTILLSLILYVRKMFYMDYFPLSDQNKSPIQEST

For Compound 1 (LG20), RL[L~A]EA (peptide), in test [1], the IC50 of inhibition of PmV cleavage of the fluorogenic HRPII-PExEl substrate (enzyme pre-mixed with inhibitor) was 0.367 nM and the IC50 of inhibition of PmV cleavage of the fluorogenic HRPII-PExEl substrate (inhibitor added after the reaction was initiated) is 0.329 nM. Moreover, the Ki – broadly, a dissociation constant, usually derived from enzyme kinetics or from competition with a known ligand – in test [2] is 0.197 nM.

Values taken from paper PMC4643876, “Picomolar Inhibition of Plasmepsin V, an Essential Malaria Protease, Achieved Exploiting the Prime Region” (PLoS ONE, 2015).
